This passage reports binding results from publication PMC5061333.

This series concerns the target ASC (UniProt Q9ULZ3). In words: EMSA. The settings on record: EMSA: 100 mM Tris, 500 mM NaCl, 10 mM DTT, pH 7, 15°C 30 min; 3-5 μg DNA, 0.2-0.65 μg recombinant protein or 5 μg nuclear extract; 6% native PAGE. A general note: A gel shift assay detects complexes by their altered migration in electrophoresis.

Chain of ASC (Q9ULZ3 whole entry): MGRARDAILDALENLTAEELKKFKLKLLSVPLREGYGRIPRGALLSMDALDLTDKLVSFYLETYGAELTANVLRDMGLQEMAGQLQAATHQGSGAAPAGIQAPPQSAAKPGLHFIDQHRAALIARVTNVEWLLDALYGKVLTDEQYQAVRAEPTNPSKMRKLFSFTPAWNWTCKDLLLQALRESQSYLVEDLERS

As to “ATTTATATAGCTTCTCAGCCTCGAATGTGGAAATAGGTGACTCATTTGAGTGTTTTCTTTCTTTTTAGAGTCTACAGAACTTTGAAAGTATGTGTTATTTTTCATTAACTAAAACGAGGAAGTATTACATCGTTATTGGCAGGAAGCACACAATGTATTTGTCTTTCAAAGGATTTTTTTTTCTGTCTGCTGCATAAATTGACTCCATGAGAAACCTCATTTTTTTGCCAAAGTCAAATGACTGCTCTCATAGGTATCA (double strand) [MMP7 promoter P1]”, the binding result was “binds”.
